The values that follow come from publication PMC7618248, “VEL-dependent polymerization maintains the chromatin association of Polycomb proteins for the switch to epigenetic silencing” (Molecular cell, 2025).

This data set deals with the molecule itself. Nature of the data set: SEC-MALS; purified Lip-VIN3VEL at increasing concentrations from 50 uM to 1250 uM; Superose6 Increase 10/300 column. A general note: Size exclusion chromatography separates by hydrodynamic size, large species first.

Where a chain is given by its changes, count along the chain named. Numbers in names are those of the source.

B1: Lip-VIN3VEL (residues 500-603) wild type (domain or fragment, Arabidopsis thaliana, UniProt Q9FIE3 500-603, looked up)
chain: GKQGGNKRFKSRTVSLNEKPEINNAANGVGDKDLGHIVKTIRCLEEEGHIDKSFRERFLTWYSLRATHREVRVVKIFVETFMEDLSSLGQQLVDTFSESILSKR
notes: VIN3 VEL domain construct, Arabidopsis thaliana, residues 500-603; The end of the tag is read from the name Lip-VIN3VEL; also called WT VIN3VEL; 6xHisLip-tagged VIN3VEL; source: Escherichia coli, purified; not shown: 6xHis-Lip (lipoyl solubility tag), N-terminal, kept
For B1, the binding result is on record as “binds”.

B2: Lip-VIN3VEL (residues 500-603) I575T (domain or fragment, Arabidopsis thaliana, UniProt Q9FIE3 500-603, looked up)
chain: B1 chain with I76T
notes: VIN3 VEL domain construct, Arabidopsis thaliana, residues 500-603, with I575 changed to the threonine found at the corresponding position of VRN5; The end of the tag is read from the name Lip-VIN3VEL; also called I575T mutant Lip-VIN3VEL; VIN3VEL I575T; source: Escherichia coli, purified; not shown: 6xHis-Lip (lipoyl solubility tag), N-terminal, kept
Turning to B2, the binding result was “binds”.
